Molecular target: CNOT1 of the CCR4-NOT complex, endogenous
Experiment: GFP-trap pull-down, Western blot quantification
Settings: lentivirally transduced neurons, read off a plot
[1] = NMDA 3 min, 10 min incubation after NMDA washout, parent: est. 1.4
[2] = vehicle (no NMDA) 3 min, 10 min incubation after washout, parent: est. 0.94

ratio to parent [1] | ratio to parent [2] | Substance
0.81 | 0.75 | GFP-Ago2(WT) (from UniProt Q9UKV8) S387A
1.3 | 1.3 | GFP-Ago2(WT) (from UniProt Q9UKV8) S387D
